Earlier results on 1 substance are cited in publication PMC1079850.

As a reminder, the pKd is the Kd on a negative log10 scale, so that one unit is a factor of ten.

The data set has as its target Tsr (Escherichia coli) (UniProt P02942). The data set can be described thus: given as Ka.

pKd: −log10 of the molar value.

CheR, sequence (P07364 whole entry): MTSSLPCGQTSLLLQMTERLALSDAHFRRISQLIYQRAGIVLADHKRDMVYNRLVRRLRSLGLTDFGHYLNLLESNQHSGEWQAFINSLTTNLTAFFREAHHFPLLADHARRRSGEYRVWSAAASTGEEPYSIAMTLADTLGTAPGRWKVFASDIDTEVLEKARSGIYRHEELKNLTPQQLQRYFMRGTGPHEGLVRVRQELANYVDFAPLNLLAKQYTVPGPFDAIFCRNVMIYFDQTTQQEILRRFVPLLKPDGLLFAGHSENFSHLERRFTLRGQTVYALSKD
Tsr (Escherichia coli), sequence (P02942 whole entry): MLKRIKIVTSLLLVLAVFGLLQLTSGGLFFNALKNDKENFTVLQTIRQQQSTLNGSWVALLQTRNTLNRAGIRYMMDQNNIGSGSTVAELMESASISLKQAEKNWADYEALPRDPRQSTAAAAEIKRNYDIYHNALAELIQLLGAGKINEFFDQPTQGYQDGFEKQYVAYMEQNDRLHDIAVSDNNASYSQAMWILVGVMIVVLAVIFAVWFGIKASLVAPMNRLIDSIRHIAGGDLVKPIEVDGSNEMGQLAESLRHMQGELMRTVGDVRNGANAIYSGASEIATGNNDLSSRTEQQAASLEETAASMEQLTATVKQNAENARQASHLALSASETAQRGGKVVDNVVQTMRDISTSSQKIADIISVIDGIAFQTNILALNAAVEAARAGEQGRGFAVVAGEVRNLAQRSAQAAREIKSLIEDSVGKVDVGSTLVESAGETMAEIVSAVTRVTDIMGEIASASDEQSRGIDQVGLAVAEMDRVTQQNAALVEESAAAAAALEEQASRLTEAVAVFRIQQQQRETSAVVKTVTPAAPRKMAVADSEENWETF

For CheR (from UniProt P07364), the pKd is 5.60.
